From the supplement of paper PMC10567573

B1: TRAF3IP2 (parent)
chain: FMEKRNQWLVSQLSAASPDTGHDS

Variants of: B1
Assay: protein stability index of a GFP-peptide fusion (GPS, HEK-293T) (PSI 1-6); higher = more stable
Details: c terminus: a fixed tail appended
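Also: lentivirally expressed fusions sorted by FACS into six bins by GFP to DsRed ratio, PSI derived from sequencing read proportions per bin multiplied by bin number.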

Variant | protein stability index
FMEKRNQWLVSQLSAASPDTGHDI [S24I] | 2.1
FMEKRNQWLVSQLSAASPDTGHDW [S24W] | 2
FMEKRNQWLVSQLSAASPDTGHDP [S24P] | 2.68
FMEKRNQWLVSQLSAASPDTGHDQ [S24Q] | 2.85
FMEKRNQWLVSQLSAASPDTGHDN [S24N] | 2.68
FMEKRNQWLVSQLSAASPDTGHDY [S24Y] | 2.04
FMEKRNQWLVSQLSAASPDTGHDG [S24G] | 3.22
FMEKRNQWLVSQLSAASPDTGHDF [S24F] | 2.15
FMEKRNQWLVSQLSAASPDTGHDE [S24E] | 3.68
FMEKRNQWLVSQLSAASPDTGHDK [S24K] | 1.81
FMEKRNQWLVSQLSAASPDTGHDV [S24V] | 2.29
FMEKRNQWLVSQLSAASPDTGHDD [S24D] | 2.45
FMEKRNQWLVSQLSAASPDTGHDR [S24R] | 2.48
FMEKRNQWLVSQLSAASPDTGHDL [S24L] | 2.22
FMEKRNQWLVSQLSAASPDTGHDC [S24C] | 2.61
FMEKRNQWLVSQLSAASPDTGHDM [S24M] | 2.09
FMEKRNQWLVSQLSAASPDTGHDH [S24H] | 2.26
FMEKRNQWLVSQLSAASPDTGHDA [S24A] | 2.4
FMEKRNQWLVSQLSAASPDTGHDT [S24T] | 2.41
FMEKRNQWLVSQLSAASPSTGHDS [D19S] | 2.43
FMEKRNQWLVSQLSAASPVTGHDS [D19V] | 1.92
FMEKRNQWLVSQLSAASPYTGHDS [D19Y] | 1.41
FMEKRNQWLVSQLSAASPWTGHDS [D19W] | 1.52
FMEKRNQWLVSQLSAASPTTGHDS [D19T] | 3.02

Variant | protein stability index
FMEKRNQWLVSQLSAASPDDGHDS [T20D] | 2.94
FMEKRNQWLVSQLSAASPDLGHDS [T20L] | 1.96
FMEKRNQWLVSQLSAASPDHGHDS [T20H] | 2.38
FMEKRNQWLVSQLSAASPDIGHDS [T20I] | 1.74
FMEKRNQWLVSQLSAASPDEGHDS [T20E] | 1.75
FMEKRNQWLVSQLSAASPDNGHDS [T20N] | 2.1
FMEKRNQWLVSQLSAASPDPGHDS [T20P] | 1.99
FMEKRNQWLVSQLSAASPDSGHDS [T20S] | 3.24
FMEKRNQWLVSQLSAASPDMGHDS [T20M] | 3.13
FMEKRNQWLVSQLSAASPDQGHDS [T20Q] | 2.51
FMEKRNQWLVSQLSAASPDWGHDS [T20W] | 1.02
FMEKRNQWLVSQLSAASPDKGHDS [T20K] | 2.47
FMEKRNQWLVSQLSAASPDVGHDS [T20V] | 2.75
FMEKRNQWLVSQLSAASPDAGHDS [T20A] | 2.32
FMEKRNQWLVSQLSAASPDRGHDS [T20R] | 1.89
FMEKRNQWLVSQLSAASPDFGHDS [T20F] | 1.97
FMEKRNQWLVSQLSAASPDCGHDS [T20C] | 2.65
FMEKRNQWLVSQLSAASPDYGHDS [T20Y] | 2.64
FMEKRNQWLVSQLSAASPDTGHNS [D23N] | 2.08
FMEKRNQWLVSQLSAASPDTGHKS [D23K] | 1.6
FMEKRNQWLVSQLSAASPDTGHAS [D23A] | 2.49
FMEKRNQWLVSQLSAASPDTGHGS [D23G] | 2.11
FMEKRNQWLVSQLSAASPDTGHVS [D23V] | 2.71
FMEKRNQWLVSQLSAASPDTGHLS [D23L] | 1.81

Variant | protein stability index
FMEKRNQWLVSQLSAASPDTGHMS [D23M] | 2.12
FMEKRNQWLVSQLSAASPDTGHQS [D23Q] | 2.44
FMEKRNQWLVSQLSAASPDTGHHS [D23H] | 2.47
FMEKRNQWLVSQLSAASPDTGHFS [D23F] | 2.22
FMEKRNQWLVSQLSAASPDTGHPS [D23P] | 2.21
FMEKRNQWLVSQLSAASPDTGHTS [D23T] | 2.57
FMEKRNQWLVSQLSAASPDTGHRS [D23R] | 2.07
FMEKRNQWLVSQLSAASPDTGHSS [D23S] | 2.69
FMEKRNQWLVSQLSAASPDTGHYS [D23Y] | 1.75
FMEKRNQWLVSQLSAASPDTGHCS [D23C] | 1.73
FMEKRNQWLVSQLSAASPDTGHIS [D23I] | 1.65
FMEKRNQWLVSQLSAASPDTGHES [D23E] | 2.49
FMEKRNQWLVSQLSAASPDTQHDS [G21Q] | 2.52
FMEKRNQWLVSQLSAASPDTSHDS [G21S] | 2.18
FMEKRNQWLVSQLSAASPDTFHDS [G21F] | 1.58
FMEKRNQWLVSQLSAASPDTAHDS [G21A] | 2.72
FMEKRNQWLVSQLSAASPDTIHDS [G21I] | 1.8
FMEKRNQWLVSQLSAASPDTRHDS [G21R] | 2.62
FMEKRNQWLVSQLSAASPDTVHDS [G21V] | 1.67
FMEKRNQWLVSQLSAASPDTKHDS [G21K] | 2.44
FMEKRNQWLVSQLSAASPDTTHDS [G21T] | 2.44
FMEKRNQWLVSQLSAASPDTNHDS [G21N] | 2.56
FMEKRNQWLVSQLSAASPDTEHDS [G21E] | 3.22
FMEKRNQWLVSQLSAASPDTYHDS [G21Y] | 2.08

Variant | protein stability index
FMEKRNQWLVSQLSAASPDTWHDS [G21W] | 1.63
FMEKRNQWLVSQLSAASPDTHHDS [G21H] | 2.2
FMEKRNQWLVSQLSAASPDTPHDS [G21P] | 2.75
FMEKRNQWLVSQLSAASPDTCHDS [G21C] | 1.8
FMEKRNQWLVSQLSAASPDTMHDS [G21M] | 1.77
FMEKRNQWLVSQLSAASPDTLHDS [G21L] | 1.78
FMEKRNQWLVSQLSAASPDTDHDS [G21D] | 2.47
FMEKRNQWLVSQLSAASPDTGTDS [H22T] | 3.27
FMEKRNQWLVSQLSAASPDTGDDS [H22D] | 2.87
FMEKRNQWLVSQLSAASPDTGFDS [H22F] | 2.4
FMEKRNQWLVSQLSAASPDTGADS [H22A] | 3.18
FMEKRNQWLVSQLSAASPDTGMDS [H22M] | 2.15
FMEKRNQWLVSQLSAASPDTGRDS [H22R] | 1.82
FMEKRNQWLVSQLSAASPDTGCDS [H22C] | 2.8
FMEKRNQWLVSQLSAASPDTGGDS [H22G] | 2.01
FMEKRNQWLVSQLSAASPDTGLDS [H22L] | 2.29
FMEKRNQWLVSQLSAASPDTGYDS [H22Y] | 1.94
FMEKRNQWLVSQLSAASPDTGSDS [H22S] | 2.33
FMEKRNQWLVSQLSAASPDTGKDS [H22K] | 2.39
FMEKRNQWLVSQLSAASPDTGPDS [H22P] | 2.94
FMEKRNQWLVSQLSAASPDTGQDS [H22Q] | 2.75
FMEKRNQWLVSQLSAASPDTGNDS [H22N] | 2.59
